Biological target: IL-1 receptors on MCF-7 cells
Assay: cell-based or functional assay

Substance: Interleukin 1 receptor antagonist (IL-1Ra) secreted by Pichia pastoris x-33/pGAPZαA/IL-1Ra clone 7, partially purified (from UniProt P18510 26-177) (ligand)
- proliferation of MCF-7 cells (BrdU) in the presence of 50 ng IL-1beta: 40 ng

Substance: Recombinant human IL-1beta (from UniProt P01584 117-269) (ligand)
- inhibition of proliferation of MCF-7 cells (BrdU): 50 ng

Substance: recombinant IL-1Ra standard from E. coli (Prospectany) (from UniProt P18510 26-177) (ligand)
- proliferation of MCF-7 cells (BrdU) in the presence of 50 ng IL-1beta: 20 ng

Source: patent publication US20080166762A1
